Among the data in PMC10716449 are binding signal (s (tau off,2)) values, retold here.

The data set concerns the target T1, ybbR-CENP-B-His6 (full length, JF549-labelled for smTIRF) (UniProt P07199).
T1 sequence: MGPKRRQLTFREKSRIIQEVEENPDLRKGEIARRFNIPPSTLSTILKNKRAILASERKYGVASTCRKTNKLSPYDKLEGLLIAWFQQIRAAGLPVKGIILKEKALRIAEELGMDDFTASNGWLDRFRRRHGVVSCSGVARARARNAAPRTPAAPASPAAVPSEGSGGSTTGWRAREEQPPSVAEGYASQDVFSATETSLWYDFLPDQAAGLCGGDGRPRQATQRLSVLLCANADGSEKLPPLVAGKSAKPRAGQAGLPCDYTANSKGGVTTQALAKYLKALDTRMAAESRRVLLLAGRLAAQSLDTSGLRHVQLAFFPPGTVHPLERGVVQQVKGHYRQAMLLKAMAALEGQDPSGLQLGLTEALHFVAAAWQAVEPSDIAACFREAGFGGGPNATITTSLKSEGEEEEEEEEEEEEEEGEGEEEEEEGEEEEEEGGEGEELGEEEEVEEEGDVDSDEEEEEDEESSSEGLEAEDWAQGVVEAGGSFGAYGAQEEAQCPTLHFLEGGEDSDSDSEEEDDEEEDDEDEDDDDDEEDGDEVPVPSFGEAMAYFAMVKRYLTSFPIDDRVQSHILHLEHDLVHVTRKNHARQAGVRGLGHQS
Nature of the data set: single-molecule colocalization (smTIRF). To be noted: smTIRF: about 5 nM CENP-B, 150 mM salt, EMSA: 10 mM Tris pH 7.5, 130 mM KCl, 3.2% glucose, 30 min at room temperature.

With “GATCGGTCTCATAGCCTTCGTTGGAAACGGGAGAATCCCGGTGCCGAGGCCGCTCAATTGGTCGTAGACAGCTCTAGCACCGCTTAAACGCACGTACGCGCTGTCCCCCGCGTTTTAACCGCCAAGGGGATTACTCCCTAGTCTCCAGGCACGTGTCAGATATATACATCCTGTCACACTGTGGATC (double strand) [CENP-A 1x601 BB mononucleosome]”, for the setting “tau_off,1 6.8 s (51%), A2 49%, amino-C6-dT on reverse strand (smTIRF), 5% PAGE in 0.25x TBE”, the binding signal (s (tau off,2)) stood at 50.2. As for “GATCGGTCTCATAGCCTGGAGAATCCCGGTGCCGAGGCCGCTCAATTGGTCGTAGACAGCTCTAGCACCGCTTAAACGCACGTACGCGCTGTCCCCCGCGTTTTAACCGCCAAGGGGATTACTCCCTAGTCTCCAGGCACGTGTCAGATATATACATCCTGTCACACTGTGGATC (double strand) [H3 1x601 mononucleosome (no B-Box)]”, the binding signal (s (tau off,2)) (tau_off,1 3.4 s (51%), A2 49%, amino-C6-dT on reverse strand, 5% PAGE in 0.25x TBE) was 15.2. Regarding “GATCGGTCTCATAGCCTTCGTTGGAAACGGGAGAATCCCGGTGCCGAGGCCGCTCAATTGGTCGTAGACAGCTCTAGCACCGCTTAAACGCACGTACGCGCTGTCCCCCGCGTTTTAACCGCCAAGGGGATTACTCCCTAGTCTCCAGGCACGTGTCAGATATATACATCCTGTCACACTGTGGATC (double strand) [H3 1x601 BB mononucleosome]”, the binding signal (s (tau off,2)) (tau_off,1 6.87 s (66%), A2 34%, amino-C6-dT on reverse strand, 5% PAGE in 0.25x TBE) worked out at 48.3. Turning to “CENP-A 12x601 chromatin fiber DA3BB (1 B-Box at N6)”, for the setting “150 mM KCl, tau_off,1 4.9 s (67%), A2 33%, amino-C6-dT, 5% PAGE in 0.25x …”, the binding signal (s (tau off,2)) worked out at 51.4. Consider “H3 12x601 chromatin fiber DA3BB (1 B-Box at N6)”, for which, under “150 mM KCl, tau_off,1 3.6 s (47%), A2 52%, amino-C6-dT, 5% PAGE in 0.25x …”, the binding signal (s (tau off,2)) was 17.6.
